Article PMC10032657

Target: anti-CD52 IgG1-RGY (alemtuzumab with E345R, E430G and S440Y)
Assay: native MS; anti-CD52 IgG1-RGY at a total IgG1 concentration of 2 µM, no peptide; 150 mM ammonium acetate pH 7.5; monomer and hexamer in solution

B1: anti-CD52 IgG1-RGY (alemtuzumab with E345R, E430G and S440Y) (antibody, V domains shown)
VH: QVQLQESGPGLVRPSQTLSLTCTVSGFTFTDFYMNWVRQPPGRGLEWIGFIRDKAKGYTTEYNPSVKGRVTMLVDTSKNQFSLRLSSVTAADTAVYYCAREGHTAAPFDYWGQGSLVTVSS
VL: DIQMTQSPSSLSASVGDRVTITCKASQNIDKYLNWYQQKPGKAPKLLIYNTNNLQTGVPSRFSGSGSGTDFTFTISSLQPEDIATYYCLQHISRPRTFGQGTKVEIK
In the case of B1, the stoichiometry N is reported as 6.
